Test results as given in the supplement of paper PMC9112550, “Optimization of the antimicrobial peptide Bac7 by deep mutational scanning” (BMC Biology, 2022).

Test system: Escherichia coli TOP10
Test: shrunken log2 fold change of peptide-encoding DNA abundance (4.5 h post-induction vs induction); higher = less antimicrobial activity (less host growth inhibition)
Conditions: time post-induction: 4.5 h; library: site-saturation at positions 5, 18, 19, 20
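Further: peptides expressed intracellularly from a pBAD plasmid library in pooled LB shake-flask culture, induced with 0.3% L-arabinose, DNA abundance read by NGS, three biological replicates, DESeq2 with apeglm shrinkage.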

**Q.** With RRIRCRPPRLPRPRPRPMIRPRP as the sequence, how does the “shrunken log2 fold change” value read?
**A.** -0.0688

**Q.** RRIRERPPRLPRPRPRPATHPRP was tested. Which “shrunken log2 fold change” value did it give?
**A.** -0.264

**Q.** For RRIRTRPPRLPRPRPRPNTNPRP, which “shrunken log2 fold change” value is on record?
**A.** -0.556

**Q.** RRIRMRPPRLPRPRPRPKMNPRP was tested. Which “shrunken log2 fold change” value did it give?
**A.** 0.501

**Q.** Which “shrunken log2 fold change” value does the source give for RRIRWRPPRLPRPRPRPEAMPRP here?
**A.** 0.142

**Q.** Which “shrunken log2 fold change” value does the source give for RRIRDRPPRLPRPRPRPLLMPRP here?
**A.** 0.359

**Q.** Which “shrunken log2 fold change” value does the source give for RRIRVRPPRLPRPRPRPGSHPRP here?
**A.** 0.105

**Q.** With RRIRTRPPRLPRPRPRPYMMPRP as the sequence, how does the “shrunken log2 fold change” value read?
**A.** 0.0264

**Q.** How did the “shrunken log2 fold change” value turn out when RRIRERPPRLPRPRPRPFEWPRP was run?
**A.** -0.132

**Q.** Which “shrunken log2 fold change” value does the source give for RRIRCRPPRLPRPRPRPQCEPRP here?
**A.** -0.128

**Q.** Which “shrunken log2 fold change” value does the source give for RRIRIRPPRLPRPRPRPCIGPRP here?
**A.** -0.632

**Q.** With RRIRQRPPRLPRPRPRPWTFPRP as the sequence, how does the “shrunken log2 fold change” value read?
**A.** -0.0125

**Q.** How did the “shrunken log2 fold change” value turn out when RRIRTRPPRLPRPRPRPGWNPRP was run?
**A.** -0.039

**Q.** Which “shrunken log2 fold change” value does the source give for RRIRGRPPRLPRPRPRPCWEPRP here?
**A.** -0.000921

**Q.** RRIRVRPPRLPRPRPRPHSNPRP was tested. Which “shrunken log2 fold change” value did it give?
**A.** -0.505

**Q.** Which “shrunken log2 fold change” value does the source give for RRIRTRPPRLPRPRPRPYTEPRP here?
**A.** -0.267

**Q.** RRIRDRPPRLPRPRPRPPQVPRP was tested. Which “shrunken log2 fold change” value did it give?
**A.** 0.272

**Q.** Which “shrunken log2 fold change” value does the source give for RRIRRRPPRLPRPRPRPCLLPRP here?
**A.** -0.335

**Q.** With RRIRWRPPRLPRPRPRPQWCPRP as the sequence, how does the “shrunken log2 fold change” value read?
**A.** -0.0974

**Q.** How did the “shrunken log2 fold change” value turn out when RRIRERPPRLPRPRPRPPSFPRP was run?
**A.** -0.126

**Q.** Which “shrunken log2 fold change” value does the source give for RRIRYRPPRLPRPRPRPNVQPRP here?
**A.** -0.0298

**Q.** RRIRWRPPRLPRPRPRPDPIPRP was tested. Which “shrunken log2 fold change” value did it give?
**A.** -0.242

**Q.** For RRIRLRPPRLPRPRPRPKWIPRP, which “shrunken log2 fold change” value is on record?
**A.** 0.137

**Q.** With RRIRIRPPRLPRPRPRPDDMPRP as the sequence, how does the “shrunken log2 fold change” value read?
**A.** -0.0552

**Q.** RRIRLRPPRLPRPRPRPQLLPRP was tested. Which “shrunken log2 fold change” value did it give?
**A.** -0.0176

**Q.** How did the “shrunken log2 fold change” value turn out when RRIRNRPPRLPRPRPRPDEYPRP was run?
**A.** 0.00318

**Q.** With RRIRHRPPRLPRPRPRPQRSPRP as the sequence, how does the “shrunken log2 fold change” value read?
**A.** 0.0449

**Q.** For RRIRHRPPRLPRPRPRPLPPPRP, which “shrunken log2 fold change” value is on record?
**A.** 0.196

**Q.** With RRIRKRPPRLPRPRPRPLNSPRP as the sequence, how does the “shrunken log2 fold change” value read?
**A.** 0.00355

**Q.** For RRIRFRPPRLPRPRPRPDKWPRP, which “shrunken log2 fold change” value is on record?
**A.** 0.0538

**Q.** Which “shrunken log2 fold change” value does the source give for RRIRNRPPRLPRPRPRPSYLPRP here?
**A.** -0.959

**Q.** With RRIRNRPPRLPRPRPRPITAPRP as the sequence, how does the “shrunken log2 fold change” value read?
**A.** -0.132

**Q.** With RRIRSRPPRLPRPRPRPRRHPRP as the sequence, how does the “shrunken log2 fold change” value read?
**A.** 0.323

**Q.** With RRIRCRPPRLPRPRPRPAALPRP as the sequence, how does the “shrunken log2 fold change” value read?
**A.** 0.219

**Q.** RRIRFRPPRLPRPRPRPETCPRP was tested. Which “shrunken log2 fold change” value did it give?
**A.** -0.0911

**Q.** For RRIRCRPPRLPRPRPRPIPAPRP, which “shrunken log2 fold change” value is on record?
**A.** 0.0747

**Q.** For RRIRKRPPRLPRPRPRPEASPRP, which “shrunken log2 fold change” value is on record?
**A.** 0.497

**Q.** With RRIRLRPPRLPRPRPRPFDRPRP as the sequence, how does the “shrunken log2 fold change” value read?
**A.** -0.38

**Q.** RRIRMRPPRLPRPRPRPTNNPRP was tested. Which “shrunken log2 fold change” value did it give?
**A.** -0.0518

**Q.** Which “shrunken log2 fold change” value does the source give for RRIRRRPPRLPRPRPRPCYLPRP here?
**A.** -0.499

**Q.** How did the “shrunken log2 fold change” value turn out when RRIRVRPPRLPRPRPRPWECPRP was run?
**A.** -0.00141

**Q.** How did the “shrunken log2 fold change” value turn out when RRIRFRPPRLPRPRPRPVKVPRP was run?
**A.** -0.297

**Q.** For RRIRGRPPRLPRPRPRPRTFPRP, which “shrunken log2 fold change” value is on record?
**A.** 1.1

**Q.** How did the “shrunken log2 fold change” value turn out when RRIRLRPPRLPRPRPRPTEEPRP was run?
**A.** -0.0651

**Q.** RRIRGRPPRLPRPRPRPPMQPRP was tested. Which “shrunken log2 fold change” value did it give?
**A.** 1.12

**Q.** Which “shrunken log2 fold change” value does the source give for RRIRKRPPRLPRPRPRPYEVPRP here?
**A.** -0.205

**Q.** For RRIRARPPRLPRPRPRPTAFPRP, which “shrunken log2 fold change” value is on record?
**A.** 0.815

**Q.** Which “shrunken log2 fold change” value does the source give for RRIRQRPPRLPRPRPRPFADPRP here?
**A.** -0.0142

**Q.** With RRIRCRPPRLPRPRPRPELPPRP as the sequence, how does the “shrunken log2 fold change” value read?
**A.** 0.762

**Q.** RRIRSRPPRLPRPRPRPIPPPRP was tested. Which “shrunken log2 fold change” value did it give?
**A.** -0.0431

**Q.** RRIRPRPPRLPRPRPRPYFNPRP was tested. Which “shrunken log2 fold change” value did it give?
**A.** -0.619

**Q.** How did the “shrunken log2 fold change” value turn out when RRIRIRPPRLPRPRPRPRVHPRP was run?
**A.** -0.0227

**Q.** How did the “shrunken log2 fold change” value turn out when RRIRTRPPRLPRPRPRPKLKPRP was run?
**A.** -0.0522

**Q.** For RRIRVRPPRLPRPRPRPIETPRP, which “shrunken log2 fold change” value is on record?
**A.** 0.0184

**Q.** RRIRHRPPRLPRPRPRPFTPPRP was tested. Which “shrunken log2 fold change” value did it give?
**A.** -0.484

**Q.** RRIRSRPPRLPRPRPRPGMFPRP was tested. Which “shrunken log2 fold change” value did it give?
**A.** 0.107

**Q.** With RRIRQRPPRLPRPRPRPMCRPRP as the sequence, how does the “shrunken log2 fold change” value read?
**A.** -0.0374

**Q.** For RRIRRRPPRLPRPRPRPQDYPRP, which “shrunken log2 fold change” value is on record?
**A.** -0.268

**Q.** How did the “shrunken log2 fold change” value turn out when RRIRCRPPRLPRPRPRPQLVPRP was run?
**A.** 0.569

**Q.** For RRIRFRPPRLPRPRPRPTCWPRP, which “shrunken log2 fold change” value is on record?
**A.** 0.0659

**Q.** With RRIRPRPPRLPRPRPRPPSFPRP as the sequence, how does the “shrunken log2 fold change” value read?
**A.** 0.262

**Q.** How did the “shrunken log2 fold change” value turn out when RRIRVRPPRLPRPRPRPMQYPRP was run?
**A.** -0.324

**Q.** With RRIRIRPPRLPRPRPRPHGLPRP as the sequence, how does the “shrunken log2 fold change” value read?
**A.** -0.00134

**Q.** For RRIRPRPPRLPRPRPRPMIKPRP, which “shrunken log2 fold change” value is on record?
**A.** -0.696

**Q.** With RRIRDRPPRLPRPRPRPHFCPRP as the sequence, how does the “shrunken log2 fold change” value read?
**A.** 0.23

**Q.** For RRIRVRPPRLPRPRPRPWRNPRP, which “shrunken log2 fold change” value is on record?
**A.** 0.065

**Q.** Which “shrunken log2 fold change” value does the source give for RRIRARPPRLPRPRPRPRPPPRP here?
**A.** 1.26

**Q.** Which “shrunken log2 fold change” value does the source give for RRIRERPPRLPRPRPRPRADPRP here?
**A.** 0.0209

**Q.** Which “shrunken log2 fold change” value does the source give for RRIRMRPPRLPRPRPRPGCPPRP here?
**A.** 0.521

**Q.** How did the “shrunken log2 fold change” value turn out when RRIRKRPPRLPRPRPRPDLWPRP was run?
**A.** 0.123

**Q.** RRIRHRPPRLPRPRPRPLGFPRP was tested. Which “shrunken log2 fold change” value did it give?
**A.** 0.114

**Q.** RRIRPRPPRLPRPRPRPWLLPRP was tested. Which “shrunken log2 fold change” value did it give?
**A.** -0.111

**Q.** RRIRMRPPRLPRPRPRPILCPRP was tested. Which “shrunken log2 fold change” value did it give?
**A.** 0.0427

**Q.** With RRIRPRPPRLPRPRPRPNPPPRP as the sequence, how does the “shrunken log2 fold change” value read?
**A.** 0.188

**Q.** For RRIRCRPPRLPRPRPRPDVKPRP, which “shrunken log2 fold change” value is on record?
**A.** -0.153
